Results taken from patent US20100183584A1, “CONFORMATION AND ACTIVITY OF GBETA5 COMPLEXES” (University Of Miami, priority 2007, published 2010).
Numbering of substitutions follows the chain as printed. Each block holds one molecule with its values, some of them ahead of it.

What was measured:
[1] = target: muscarinic acetylcholine M3 receptor (M3R), full length, expressed in CHO cells (human) (UniProt P20309); test: cell-based or functional assay
[2] = target: native RGS7-Gβ5 complex from mouse brain extract (mouse) (UniProt P62881); test: GST pull-down from mouse brain extract, western blot
[3] = target: Gβ5-RGS7^249-469 complex (bovine) (UniProt O46470); test: GST pull-down from COS-7 lysate, western blot
[4] = target: full-length RGS7-Gβ5 complex (recombinant, co-expressed in cells) (bovine) (UniProt O46470); test: GST pull-down from COS-7 lysate, western blot
[5] = target: T1, Gβ5-RGS7 dimer (CFP-Gβ5/YFP-RGS7) (UniProt O14775+O46470); test: FRET between CFP-Gβ5 and YFP-RGS7 in COS-7 cell lysates; type: binding, bovine; details: GST-R7DEP added to COS-7 lysate; GST alone had no effect
T1 construct: YFP fusion of full-length RGS7 (YFP-RGS7) and CFP-Gβ5; expressed in transfected cells; host or cells: COS-7 (transient; lysate measured)
T1 sequence (O14775 1-353 isoform O14775-2): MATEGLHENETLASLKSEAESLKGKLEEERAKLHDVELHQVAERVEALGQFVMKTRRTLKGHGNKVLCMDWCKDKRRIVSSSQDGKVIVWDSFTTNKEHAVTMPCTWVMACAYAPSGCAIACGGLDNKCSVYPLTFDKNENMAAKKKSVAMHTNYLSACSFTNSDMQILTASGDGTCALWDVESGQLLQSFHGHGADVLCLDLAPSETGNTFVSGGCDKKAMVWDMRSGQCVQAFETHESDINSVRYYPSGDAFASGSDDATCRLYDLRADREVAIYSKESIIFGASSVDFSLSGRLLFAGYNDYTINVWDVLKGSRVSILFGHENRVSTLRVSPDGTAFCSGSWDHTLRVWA
T1 sequence (O46470 1-469): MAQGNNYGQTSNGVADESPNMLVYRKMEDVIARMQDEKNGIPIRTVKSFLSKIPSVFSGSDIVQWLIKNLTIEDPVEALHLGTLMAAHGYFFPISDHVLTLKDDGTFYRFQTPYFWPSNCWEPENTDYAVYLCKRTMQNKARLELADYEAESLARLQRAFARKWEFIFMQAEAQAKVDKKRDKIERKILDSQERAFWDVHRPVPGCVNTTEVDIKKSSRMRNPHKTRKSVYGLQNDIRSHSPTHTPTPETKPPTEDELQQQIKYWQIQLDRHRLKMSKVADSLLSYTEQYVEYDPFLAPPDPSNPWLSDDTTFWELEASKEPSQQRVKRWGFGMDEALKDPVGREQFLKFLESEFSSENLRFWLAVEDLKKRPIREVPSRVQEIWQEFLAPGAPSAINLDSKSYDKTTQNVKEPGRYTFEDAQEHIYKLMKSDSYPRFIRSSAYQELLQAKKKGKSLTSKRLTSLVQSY
Text: To measure FRET, COS-7 cells were transiently transfected with plasmids encoding YFP-RGS7 and CFP-Gβ5. Control cells were co-transfected with YFP-RGS7 together with untagged Gβ5, and CFP-Gβ5 together with untagged RGS7. The lysates of these cells were subjected to spectroscopic analysis, as described in Example 1. Shown are the resulting FRET spectra obtained after subtraction of the YFP background fluorescence during the CFP excitation and CFP “bleed-through” into the YFP emission channel. A. Right panel: GST R7-DEP (black symbols) or buffer (open symbols) was added to the lysate prior to recording of the spectra. […]
To permit the association of exogenously added DEP domain with Gβ5, the intra-molecular interaction between the intrinsic DEP and Gβ5 must be dynamic and have relatively low affinity. To investigate this hypothesis, a protein-protein binding assay based on fluorescence resonance energy transfer (FRET) was devised. […]
FRET between CFP— and YFP-tagged proteins was determined on a photon counting spectrofluorometer (PTI, Inc.) (28). Briefly, the cell lysates were placed in a 4 ml quartz cuvette, and the spectra were recorded at room temperature with continuous mixing of the lysate with a magnetic stirrer. CFP was excited at 433 nm (2-4 nm slit width, depending on the intensity of fluorescence signal) and the emission spectra were obtained between 465 and 555 nm. […]

[6] = target: T2, native RGS7-Gβ5 complex from mouse brain extract (mouse, UniProt P62881 1-353; O54829 1-469, limits assumed); test: GST pull-down from mouse brain extract, western blot with anti-RGS7 and anti-Gβ5
T2 construct: Native complex in a cholate extract of brain membranes; may also carry R7BP; also called native Gβ5-RGS7; Gβ5-RGS complexes (brain)
T2 sequence (looked up) 1: T1 sequence (O14775 1-353 isoform O14775-2) with E4D, I242V
T2 sequence (looked up) 2: T1 sequence (O46470 1-469) with Q259H, A298V, K371R, K452R, S456T

GST = target: T3, GST (UniProt P08515 1-218 = GST); test: GST pull-down from CHO cell lysate
T3 construct: Negative control in pull-down and FRET assays; also called GST alone; immobilized GST
T3 sequence (P08515 whole entry): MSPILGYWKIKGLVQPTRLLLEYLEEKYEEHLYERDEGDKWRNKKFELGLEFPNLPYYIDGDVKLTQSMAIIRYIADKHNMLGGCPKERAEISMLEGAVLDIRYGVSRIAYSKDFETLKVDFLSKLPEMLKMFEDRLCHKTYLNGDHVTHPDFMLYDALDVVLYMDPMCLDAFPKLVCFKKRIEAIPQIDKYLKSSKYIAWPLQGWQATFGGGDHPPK

Sequence of muscarinic acetylcholine M3 receptor (M3R), full length, expressed in CHO cells (human) (P20309 whole entry): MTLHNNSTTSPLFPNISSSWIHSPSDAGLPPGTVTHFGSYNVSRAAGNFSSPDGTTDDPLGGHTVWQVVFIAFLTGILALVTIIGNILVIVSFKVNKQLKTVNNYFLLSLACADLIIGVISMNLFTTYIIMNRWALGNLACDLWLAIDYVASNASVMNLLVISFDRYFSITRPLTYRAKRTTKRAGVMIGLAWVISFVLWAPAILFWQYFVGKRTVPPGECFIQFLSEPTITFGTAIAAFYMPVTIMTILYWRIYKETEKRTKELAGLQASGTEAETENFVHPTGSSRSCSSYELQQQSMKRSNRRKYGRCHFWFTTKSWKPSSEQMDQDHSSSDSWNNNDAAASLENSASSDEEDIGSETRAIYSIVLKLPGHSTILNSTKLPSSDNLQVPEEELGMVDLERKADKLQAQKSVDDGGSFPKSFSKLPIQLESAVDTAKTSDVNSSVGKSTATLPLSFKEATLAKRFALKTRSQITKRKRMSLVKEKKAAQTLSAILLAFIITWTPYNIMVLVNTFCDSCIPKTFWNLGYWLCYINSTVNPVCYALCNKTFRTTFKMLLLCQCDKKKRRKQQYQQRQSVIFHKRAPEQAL

Molecule: GST-R7DEP ED/SG mutant (E73S/D74G) (from UniProt O46470 34-124)
fold reduction in the amount of Gβ5 pulled down relative to the wild-type DEP domain [2]: > 10 fold
fold reduction in the amount of Gβ5 pulled down relative to the wild-type DEP domain [3]: > 10 fold
fold reduction in the amount of Gβ5 pulled down relative to the wild-type DEP domain [4]: > 10 fold

B1: GST-R7DEP: GST fusion construct containing the amino acids 34-124 of bovine RGS7 (protein)
chain: MQDEKNGIPIRTVKSFLSKIPSVFSGSDIVQWLIKNLTIEDPVEALHLGTLMAAHGYFFPISDHVLTLKDDGTFYRFQTPYFWPSNCWEPE
modifications: left off: a dimerising Fc or GST
notes: GST fusion construct containing the amino acids 34-124 of bovine RGS7
FRET reduction, of the total FRET signal [5]: 15-20%

Results, then the molecule that gave them:

reduction of the amplitude of carbachol-induced Ca^2+ transients in CHO-R7BP cells [1]: > 50%
Molecule: full-length RGS7 ED/SG mutant (RGS7^ED/SG, E73S/D74G) co-expressed with Gβ5 (from UniProt O46470 1-469)

binding result [6]: no binding
B2: GST-R9DEP (GST fusion of the putative DEP domain of RGS9, amino acids 20-117 of bovine RGS9) (other, UniProt O46469 20-117, looked up)
chain: IEALVKDMQDPDTGVRVQNQKVKVVSIPHAMTGSDVLQWISQRLWISGLEAQNLGNFIVKYGYIYPLQDPRNLTLKPDSSLYRFQTPYFWPTQQWPAE
notes: range 20-117; not shown: glutathione S-transferase (GST) tag of the pGEX-KG vector

binding result (GST): no binding
B3: YFP-DEP (amino acids 1-124 of full-length bovine RGS7 fused to the C-terminus of YFP) (other, UniProt O46470 1-124, looked up)
chain: MAQGNNYGQTSNGVADESPNMLVYRKMEDVIARMQDEKNGIPIRTVKSFLSKIPSVFSGSDIVQWLIKNLTIEDPVEALHLGTLMAAHGYFFPISDHVLTLKDDGTFYRFQTPYFWPSNCWEPE
notes: range 1-124; also called DEP domain; DEP domain of RGS7; not shown: yellow fluorescent protein (YFP) of the pEYFPC1 vector
